US20100016408A1 (NEW YORK UNIVERSITY, published 2010)
Blank lines part the entries; values can stand above or below the binder they belong to.

What was measured:
Claspin = molecular target: T1, Claspin (human, UniProt Q9HAW4 1-1339); assay: co-immunoprecipitation with anti-FLAG resin from HEK293T cells, immunoblot for endogenous Claspin (FIG. 2A)
T1 construct: also called endogenous Claspin; wild type Claspin
Description: To test whether APC/C^Cdh1 has a role in the degradation of Claspin during G0/G1, the expression of Cdh1 was reduced in T98G cells using a validated […] (SEQ ID NO:21). T98G cells were serum starved following knockdown of Cdh1, and the expression levels of Claspin were analyzed at various time points thereafter. FIGS. 2A-D are immunoblots showing Claspin is degraded in G0 and G1 via the APC/C^Cdh1 ubiquitin ligase. […] HEK293T cells were transfected with the indicated FLAG-tagged constructs or an empty vector (EV). Whole cell extracts (WCE) were immunoprecipitated (IP) with anti-FLAG resin, and immunocomplexes were probed with antibodies to the indicated proteins.

FLAG-tagged Claspin(ENL) = molecular target: T2, FLAG-tagged Claspin(ENL) (human, UniProt Q9HAW4 1-1339, limits assumed); assay: co-immunoprecipitation with anti-HA antibody from HEK293T cells, immunoblot (FIG. 3F)
T2 construct: also called mutant #3; not shown: FLAG tag
T2 sequence (Q9HAW4 other isoform, or with tags, fused parts or gaps limits assumed): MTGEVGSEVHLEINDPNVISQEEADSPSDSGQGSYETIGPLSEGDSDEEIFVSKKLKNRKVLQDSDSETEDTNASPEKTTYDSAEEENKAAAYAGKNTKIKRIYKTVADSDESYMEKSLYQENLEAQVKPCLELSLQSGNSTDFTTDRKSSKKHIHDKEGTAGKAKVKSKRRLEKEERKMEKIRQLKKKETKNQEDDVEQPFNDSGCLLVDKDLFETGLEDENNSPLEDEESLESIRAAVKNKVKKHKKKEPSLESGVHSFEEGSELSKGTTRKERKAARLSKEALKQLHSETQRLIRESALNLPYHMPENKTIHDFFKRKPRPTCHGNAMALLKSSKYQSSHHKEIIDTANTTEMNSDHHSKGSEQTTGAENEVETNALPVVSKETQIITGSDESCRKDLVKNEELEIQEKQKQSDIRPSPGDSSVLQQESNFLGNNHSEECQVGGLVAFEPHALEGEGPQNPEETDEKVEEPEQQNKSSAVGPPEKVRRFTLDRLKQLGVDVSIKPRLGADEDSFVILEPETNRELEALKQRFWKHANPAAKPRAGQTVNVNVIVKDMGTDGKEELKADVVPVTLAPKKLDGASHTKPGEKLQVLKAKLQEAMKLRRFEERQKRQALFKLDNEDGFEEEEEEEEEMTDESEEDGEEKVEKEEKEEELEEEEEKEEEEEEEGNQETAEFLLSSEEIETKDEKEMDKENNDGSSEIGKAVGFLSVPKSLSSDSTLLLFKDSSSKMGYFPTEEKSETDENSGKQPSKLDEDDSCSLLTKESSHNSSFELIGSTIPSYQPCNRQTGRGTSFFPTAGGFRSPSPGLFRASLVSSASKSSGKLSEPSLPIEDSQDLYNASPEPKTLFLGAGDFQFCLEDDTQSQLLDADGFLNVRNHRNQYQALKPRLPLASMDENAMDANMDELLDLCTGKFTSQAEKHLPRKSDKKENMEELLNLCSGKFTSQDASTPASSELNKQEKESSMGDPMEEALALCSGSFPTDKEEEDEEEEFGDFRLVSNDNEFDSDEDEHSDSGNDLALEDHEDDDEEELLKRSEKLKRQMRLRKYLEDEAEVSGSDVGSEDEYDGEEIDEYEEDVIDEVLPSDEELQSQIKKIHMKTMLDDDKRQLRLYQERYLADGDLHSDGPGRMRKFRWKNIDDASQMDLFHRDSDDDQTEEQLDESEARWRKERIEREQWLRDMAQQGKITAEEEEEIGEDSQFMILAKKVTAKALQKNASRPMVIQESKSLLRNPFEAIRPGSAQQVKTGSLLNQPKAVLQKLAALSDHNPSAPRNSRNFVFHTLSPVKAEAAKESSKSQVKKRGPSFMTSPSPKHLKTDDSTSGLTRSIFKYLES
Description: (§1) HEK293T cells were cotransfected with HA-tagged Cdh1 and the indicated FLAG-tagged Claspin mutants. Whole cell extracts (WCE, bottom two panels, FIG. 3B) were immunoprecipitated (IP, upper two panels FIG. 3B) with an anti-HA antibody, and the indicated proteins were detected by immunoblotting. Finally, five unique, triple-point-mutations to Alanine across Claspin amino acids 79-102 were inserted, following the pattern of evolutionary conserved residues (FIG. 3E), and these mutants were assayed for binding to Cdh1. […] Thus, these studies identified the motif “EENxENL” (SEQ ID NO:29) located at residues 86-92 of Claspin (SEQ ID NO: 9), as the site mediating binding to Cdh1. Accordingly, in contrast to wild type Claspin, Claspin(ENL) was stable in HeLa cells progressing through G1 (FIG. 2C).

FLAG-tagged Claspin(EEN) = molecular target: T3, FLAG-tagged Claspin(EEN) (human, UniProt Q9HAW4 1-1339, limits assumed); assay: as above
T3 construct: also called mutant #2; not shown: FLAG tag
T3 sequence (Q9HAW4 other isoform, or with tags, fused parts or gaps limits assumed): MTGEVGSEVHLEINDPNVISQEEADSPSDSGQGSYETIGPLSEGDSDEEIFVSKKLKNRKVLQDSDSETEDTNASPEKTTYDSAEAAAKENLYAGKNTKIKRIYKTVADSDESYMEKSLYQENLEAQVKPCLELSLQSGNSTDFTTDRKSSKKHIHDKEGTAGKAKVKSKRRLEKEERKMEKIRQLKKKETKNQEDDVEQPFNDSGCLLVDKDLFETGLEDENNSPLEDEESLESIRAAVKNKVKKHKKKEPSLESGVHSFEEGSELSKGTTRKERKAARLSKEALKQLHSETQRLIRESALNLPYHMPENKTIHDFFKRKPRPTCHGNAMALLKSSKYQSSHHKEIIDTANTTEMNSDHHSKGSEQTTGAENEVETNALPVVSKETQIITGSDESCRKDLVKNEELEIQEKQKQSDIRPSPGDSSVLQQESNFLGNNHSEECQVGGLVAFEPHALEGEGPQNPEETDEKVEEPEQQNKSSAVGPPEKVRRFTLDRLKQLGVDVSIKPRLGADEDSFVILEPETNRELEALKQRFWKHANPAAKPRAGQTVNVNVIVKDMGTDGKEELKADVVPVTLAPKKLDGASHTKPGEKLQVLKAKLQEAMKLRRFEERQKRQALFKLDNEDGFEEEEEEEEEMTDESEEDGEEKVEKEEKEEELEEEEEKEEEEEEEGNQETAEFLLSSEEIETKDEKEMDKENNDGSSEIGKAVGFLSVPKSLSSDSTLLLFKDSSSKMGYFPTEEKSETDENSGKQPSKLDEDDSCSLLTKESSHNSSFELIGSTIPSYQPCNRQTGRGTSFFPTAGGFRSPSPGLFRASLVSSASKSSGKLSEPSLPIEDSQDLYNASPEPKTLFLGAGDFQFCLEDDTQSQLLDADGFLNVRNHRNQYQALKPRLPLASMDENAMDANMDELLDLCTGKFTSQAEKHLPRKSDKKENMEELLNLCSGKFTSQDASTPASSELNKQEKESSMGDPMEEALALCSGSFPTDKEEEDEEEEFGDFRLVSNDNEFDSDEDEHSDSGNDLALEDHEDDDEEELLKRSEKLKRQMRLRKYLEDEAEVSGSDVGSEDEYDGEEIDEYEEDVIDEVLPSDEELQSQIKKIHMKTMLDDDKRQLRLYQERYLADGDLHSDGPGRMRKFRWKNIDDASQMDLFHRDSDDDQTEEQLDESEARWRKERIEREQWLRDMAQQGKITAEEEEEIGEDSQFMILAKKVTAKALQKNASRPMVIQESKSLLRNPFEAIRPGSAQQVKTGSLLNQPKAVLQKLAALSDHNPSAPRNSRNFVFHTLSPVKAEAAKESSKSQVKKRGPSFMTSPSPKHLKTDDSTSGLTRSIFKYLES
Description: as §1

T1 sequence (Q9HAW4 whole entry): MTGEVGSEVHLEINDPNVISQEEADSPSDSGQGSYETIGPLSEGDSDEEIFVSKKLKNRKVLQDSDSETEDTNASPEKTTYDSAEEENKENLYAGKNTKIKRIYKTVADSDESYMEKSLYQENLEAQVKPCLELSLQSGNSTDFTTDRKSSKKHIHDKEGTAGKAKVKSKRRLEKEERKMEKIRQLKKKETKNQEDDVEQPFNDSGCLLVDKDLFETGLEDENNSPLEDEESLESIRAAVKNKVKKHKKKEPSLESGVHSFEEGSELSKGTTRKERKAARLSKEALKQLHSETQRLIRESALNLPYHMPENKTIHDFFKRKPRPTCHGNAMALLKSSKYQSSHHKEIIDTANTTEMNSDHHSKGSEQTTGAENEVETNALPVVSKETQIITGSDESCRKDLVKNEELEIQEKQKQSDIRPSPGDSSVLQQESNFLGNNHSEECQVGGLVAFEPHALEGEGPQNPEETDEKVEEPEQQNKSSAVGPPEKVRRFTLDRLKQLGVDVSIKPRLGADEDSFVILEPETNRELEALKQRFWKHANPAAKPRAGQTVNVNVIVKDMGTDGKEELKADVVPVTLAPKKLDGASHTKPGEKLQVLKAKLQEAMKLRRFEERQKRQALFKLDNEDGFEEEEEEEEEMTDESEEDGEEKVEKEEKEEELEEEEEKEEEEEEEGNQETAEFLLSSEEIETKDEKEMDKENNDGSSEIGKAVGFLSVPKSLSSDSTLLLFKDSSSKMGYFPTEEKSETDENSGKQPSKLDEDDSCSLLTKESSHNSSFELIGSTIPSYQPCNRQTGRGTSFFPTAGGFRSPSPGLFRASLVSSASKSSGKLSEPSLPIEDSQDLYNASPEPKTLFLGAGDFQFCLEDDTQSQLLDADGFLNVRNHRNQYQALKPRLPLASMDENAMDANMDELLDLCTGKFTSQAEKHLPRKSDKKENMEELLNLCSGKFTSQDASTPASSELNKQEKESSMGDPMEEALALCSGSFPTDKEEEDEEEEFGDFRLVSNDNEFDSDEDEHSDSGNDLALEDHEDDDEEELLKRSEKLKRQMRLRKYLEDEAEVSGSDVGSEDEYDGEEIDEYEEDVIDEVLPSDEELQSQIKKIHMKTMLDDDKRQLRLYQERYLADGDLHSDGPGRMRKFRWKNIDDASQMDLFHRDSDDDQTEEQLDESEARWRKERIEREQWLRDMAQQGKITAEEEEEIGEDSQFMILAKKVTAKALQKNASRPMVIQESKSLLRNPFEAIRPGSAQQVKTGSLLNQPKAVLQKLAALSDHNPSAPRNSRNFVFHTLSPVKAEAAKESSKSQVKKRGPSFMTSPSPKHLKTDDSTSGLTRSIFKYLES

binding result (Claspin): no binding
B1: FLAG-tagged Fbxw4 (other, UniProt P57775 1-412, looked up)
chain: MAAAAGEEEEEEEAARESAARPAAGPALWRLPEELLLLICSYLDMRALGRLAQVCRWLRRFTSCDLLWRRIARASLNSGFTRLGTDLMTSVPVKERVKVSQNWRLGRCREGILLKWRCSQMPWMQLEDDSLYISQANFILAYQFRPDGASLNRRPLGVFAGHDEDVCHFVLANSHIVSAGGDGKIGIHKIHSTFTVKYSAHEQEVNCVDCKGGIIVSGSRDRTAKVWPLASGRLGQCLHTIQTEDRVWSIAISPLLSSFVTGTACCGHFSPLRIWDLNSGQLMTHLGSDFPPGAGVLDVMYESPFTLLSCGYDTYVRYWDLRTSVRKCVMEWEEPHDSTLYCLQTDGNHLLATGSSYYGVVRLWDRRQRACLHAFPLTSTPLSSPVYCLRLTTKHLYAALSYNLHVLDFQNP
notes: not shown: FLAG tag

binding result (FLAG-tagged Claspin(ENL)): no binding
binding result (FLAG-tagged Claspin(EEN)): no binding
B2: HA-tagged Cdh1 (other)
chain: MDQDYERRLLRQIVIQNENTMPRVTEMRRTLTPASSPVSSPSKHGDRFIPSRAGANWSVNFHRINENEKSPSQNRKAKDATSDNGKDGLAYSALLKNELLGAGIEKVQDPQTEDRRLQPSTPEKKGLFTYSLSTKRSSPDDGNDVSPYSLSPVSNKSQKLLRSPRKPTRKISKIPFKVLDAPELQDDFYLNLVDWSSLNVLSVGLGTCVYLWSACTSQVTRLCDLSVEGDSVTSVGWSERGNLVAVGTHKGFVQIWDAAAGKKLSMLEGHTARVGALAWNAEQLSSGSRDRMILQRDIRTPPLQSERRLQGHRQEVCGLKWSTDHQLLASGGNDNKLLVWNHSSLSPVQQYTEHLAAVKAIAWSPHQHGLLASGGGTADRCIRFWNTLTGQPLQCIDTGSQVCNLAWSKHANELVSTHGYSQNQILVWKYPSLTQVAKLTGHSYRVLYLAMSPDGEAIVTGAGDETLRFWNVFSKTRSTKESVSVLNLFTRIR
notes: not shown: HA tag

binding result (Claspin): no binding
B3: FLAG-tagged Fbxw5 (other, UniProt Q969U6 1-566, looked up)
chain: MDEGGTPLLPDSLVYQIFLSLGPADVLAAGLVCRQWQAVSRDEFLWREQFYRYYQVARDVPRHPAAMSWYEEFQRLYDTVPCVEVQTLREHTDQVLHLSFSHSGYQFASCSKDCTVKIWSNDLTISLLHSADMRPYNWSYTQFSQFNKDDSLLLASGVFLGPHNSSSGEIAVISLDSFALLSRVRNKPYDVFGCWLTETSLISGNLHRIGDITSCSVLWLNNAFQDVESENVNVVKRLFKIQNLNASTVRTVMVADCSRFDSPDLLLEAGDPATSPCRIFDLGSDNEEVVAGPAPAHAKEGLRHFLDRVLEGRAQPQLSERMLETKVAELLAQGHTKPPERSATGAKSKYLIFTTGCLTYSPHQIGIKQILPHQMTTAGPVLGEGRGSDAFFDALDHVIDIHGHIIGMGLSPDNRYLYVNSRAWPNGAVVADPMQPPPIAEEIDLLVFDLKTMREVRRALRAHRAYTPNDECFFIFLDVSRDFVASGAEDRHGYIWDRHYNICLARLRHEDVVNSVVFSPQEQELLLTASDDATIKAWRSPRTMRVLQAPRPRPRTFFSWLASQRR
notes: not shown: FLAG tag
